Measurements as given in patent US20190263863A1 (GENOIMMUNE THERAPEUTICS, published 2019).

B1: wild-type polypeptide FLLGNLSFV (SEQ ID NO:5) (peptide)
peptide: FLLGNLSFV
notes: Made by solid phase peptide synthesis, HPLC purity >90%
B2: mutant polypeptide's variant FMLGNLFFV (SEQ ID NO:3) (peptide)
peptide: FMLGNLFFV
notes: as for B1
B3: mutant polypeptide's variant FMLGNLFFL (SEQ ID NO:4) (peptide)
peptide: FMLGNLFFL
notes: as for B1
B4: mutant polypeptide FLLGNLFFV (SEQ ID NO:1) (peptide)
peptide: FLLGNLFFV
notes: Made by solid phase peptide synthesis, HPLC purity >90%; also called OR4K5 S67F mutant polypeptide
B5: mutant polypeptide's variant FLLGNLFFL (SEQ ID NO:2) (peptide)
peptide: FLLGNLFFL
notes: as for B1

target: T1, HLA-A0201 on the surface of T2 cells (human); assay: T2 cell peptide loading assay, 100 uM peptide, anti-HLA-A*02:01 FITC, flow cytometry
T1 construct: surface HLA-A*02:01 is detected with an anti-HLA-A*02:01 FITC monoclonal antibody after loading with peptide
Procedure: After centrifugation at 200 g for 5 minutes for cell collection, the collected cells were washed with phosphate buffer saline (PBS) buffer twice, before incubated with anti-HLA-A*02:01 FITC monoclonal antibody at 4° C. for 30 minutes. The mean fluorescence intensity of cells was then detected and analyzed by the flow cytometry (BD FACSJazz™) and its software.

Point of comparison: B3, “FI (fluorescence index)” value 2.1. Against it:
- B1 — higher, 2.27
- B2 — higher, 2.13
- B4 — higher, 2.22
- B5 — higher, 2.17

Point of comparison: B2, Mean fluorescence intensity 694. Against it:
- B1 — higher, 724
- B3 — lower, 686
- B4 — higher, 713
- B5 — higher, 702
